Source: patent US20240317838A1, “LACTOFERRIN COMPOSITIONS AND METHODS OF USE” (LACTEA THERAPEUTICS LLC, priority 2021, published 2024)
Positions count from the first letter of the chain named.

B1: API-E2: bovine lactoferrin purified from raw, untreated milk by cation exchange chromatography and filtration according to Example 1 (protein)
chain: APRKNVRWCTISQPEWFKCRRWQWRMKKLGAPSITCVRRAFALECIRAIAEKKADAVTLDGGMVFEAGRDPYKLRPVAAEIYGTKESPQTHYYAVAVVKKGSNFQLDQLQGRKSCHTGLGRSAGWVIPMGILRPYLSWTESLEPLQGAVAKFFSASCVPCIDRQAYPNLCQLCKGEGENQCACSSREPYFGYSGAFKCLQDGAGDVAFVKETTVFENLPEKADRDQYELLCLNNSRAPVDAFKECHLAQVPSHAVVARSVDGKEDLIWKLLSKAQEKFGKNKSRSFQLFGSPPGQRDLLFKDSALGFLRIPSKVDSALYLGSRYLTTLKNLRETAEEVKARYTRVVWCAVGPEEQKKCQQWSQQSGQNVTCATASTTDDCIVLVLKGEADALNLDGGYIYTAGKCGLVPVLAENRKTSKYSSLDCVLRPTEGYLAVAVVKKANEGLTWNSLKDKKSCHTAVDRTAGWNIPMGLIVNQTGSCAFDEFFSQSCAPGRDPKSRLCALCAGDDQGLDKCVPNSKEKYYGYTGAFRCLAEDVGDVAFVKNDTVWENTNGESTADWAKNLNREDFRLLCLDGTRKPVTEAQSCHLAVAPNHAVVSRSDRAAHVKQVLLHQQALFGKNGKNCPDKFCLFKSETKNLLFNDNTECLAKLGGRPTYEEYLGTEYVTAIANLKKCSTSPLLEACAFLTR
B2: heat-treated API-E2 Lactoferrin: API-E2 Lactoferrin heated across a range of 50-100° C. (protein, UniProt P24627 20-708, looked up)
Lactotransferrin: B1 chain with V126I, T417S, Y420H, R495A
modifications: heat-treated
B3: Lab-grade standard lactoferrin: commercially available Sigma lab-grade standard lactoferrin (L9507) (protein, UniProt P24627 20-708, looked up)
Lactotransferrin: B1 chain with V126I, T417S, Y420H, R495A

How the values were obtained:
ECM of the buccal cells = test: ECM binding by immunofluorescence imaging in primary buccal cells; format: cell-based; conditions: 100 μg/mL, 1 hr at 37 C
Method: Primary buccal cells were next cultured according to a standard protocol (e.g., see Russo et al. Cytotechnology. 2016 October; 68(5): 2105-2114; herein incorporated by reference for all purposes). […] Immunofluorescence imaging was performed as previously described.

[1] = Differential Scanning calorimetry (DSC) of lactoferrin samples; format: physicochemical
Method: Di[…] calorimetry (DSC) was used to assess the hololactoferrin and apolactoferrin forms through monitoring unfolding temperatures of lactoferrin samples using a nanoDSC (TA Instruments, Lindon, UT) according to standard DSC protocols known to those of skill in the art (e.g., see Hinz et al “M[…] OF RESULTS OBTAINED ON […] DI[…] CALORIMETRY”; herein incorporated by reference for all purposes.
API-E2 Lactoferrin (10 mg/mL), produced as described herein, was assessed by DSC. […] The lack of other peaks indicates the lack of contaminants and impurities and can assess API-E2 as ˜100%. […] Additionally, the lack of other peaks also indicated the purity of API-E2 Lactoferrin. […] The API-E2 hololactoferrin peak has a Tm of 88.38+/−0.8 C and a delta H of 632.7+/−7.2 kJ/mol. The hololactoferrin natively accounted for on average 8.74+/−1.39% of the total API-E2 lactoferrin with apolactoferrin accounting for the rest in the samples tested. However, the hololactoferrin percentage can be naturally variable. The API-E2 was calculated by this technique to contain virtually 100% pure lactoferrin.
The assay was also performed with heat-treated API-E2 Lactoferrin. API-E2 Lactoferrin was heated across a range of 50-100° C.

[2] = system: Salivary bacteria (including Lactobacillus, Lactococcus, and Streptococcus mutans); test: Salivary bacteria acid production by pH testing; format: cell-based; conditions: in the presence of sucrose
Method: Salivary bacteria (including Lactobacillus, Lactococcus, and Streptococcus mutans) produce acid during growth. This acidification is strongly associated with tooth decay, particularly when it results in pH below 5.5, which is a clinically relevant threshold. A slurry of these bacteria were treated with sucrose to stimulate growth, as well as varying concentrations of API-E2 lactoferrin. Upon the addition of sucrose and API-E2 lactoferrin, the pH was adjusted to 7 through a titration and the change in pH was subsequently monitored over the next 6 hours.

[3] = DSC iron binding capability with 1000× molar excess FeCl3; format: physicochemical; conditions: FeCl3 in 1000× molar excess
Method: The DSC assay was further used to assess Lactoferrin bioactivity, specifically the iron binding capability of the API-E2 Lactoferrin. Iron chloride (FeCl3) was added in 1000× molar excess to API-E2 Lactoferrin. In the presence of excess iron, the API-E2 lactoferrin will bind the iron to its open iron binding site.

lactoperoxidase (LPO) = test: Enzymatic assay for lactoperoxidase (LPO) activity; format: biochemical; conditions: colorimetric, turns blue in the presence of peroxidase activity
Description: An enzymatic assay for lactoperoxidase (LPO) activity was developed utilizing a molecule which in the presence of peroxidase activity turns a blue color.

Row | Molecule | ECM association of Lactoferrin (ECM of the buccal cells) | % of Total, apolactoferrin ([1]; native, no added iron) | pH maintained for the entire 6 hour testing period ([2]; 1 mg/mL) | pH maintained for the entire 6 hour testing period ([2]; 10 mg/mL) | available Apolactoferrin shifted to the Hololactoferrin form upon addition of excess iron [3] | LPO enzymatic activity of the sample (lactoperoxidase (LPO)) | DSC peaks observed (apolactoferrin and hololactoferrin) ([1]; conditions as for API-E2) | apolactoferrin peak denaturation temperature ([1]; conditions as for API-E2) | hololactoferrin peak denaturation temperature ([1]; conditions as for API-E2)
1 | B1 | strong binding along the ECM | 91.26 +/− 1.39% ^ | above 5.5 | above 5.5 | 100% | neither detected by M/S or by the enzymatic assay | – | – | –
2 | B2 | – | – | – | – | – | – | loss in both detectable peaks | – | –
3 | B3 | only limited ECM association | – | – | – | – | does not result in a positive enzymatic reaction | significantly smaller than those observed for API-E2 and less defined | 55 °C | 85 °C
